Measurements as given in US20240026037A1 (Memorial Sloan Kettering, published 2024).

T1: Human GPA33 on GPA33+ colorectal cancer cell lines (Colo 205, LS 174T, SW 1222) (human, UniProt Q99795 22-319)
T1 construct: Endogenous GPA33 on human colorectal cancer cell lines; also called surface human GPA33; GPA33+ tumor cell lines
T1 sequence: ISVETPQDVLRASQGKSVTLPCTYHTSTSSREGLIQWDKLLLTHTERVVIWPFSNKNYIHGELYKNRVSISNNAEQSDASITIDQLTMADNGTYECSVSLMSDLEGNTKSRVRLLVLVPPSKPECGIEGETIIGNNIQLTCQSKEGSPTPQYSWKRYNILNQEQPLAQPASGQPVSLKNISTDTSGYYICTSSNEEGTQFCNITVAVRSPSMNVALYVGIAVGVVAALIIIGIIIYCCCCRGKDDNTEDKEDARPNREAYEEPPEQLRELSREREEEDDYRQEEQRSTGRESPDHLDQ

T2: Human GPA33 (recombinant protein, Novoprotein) (human, UniProt Q99795 22-235)
T2 construct: Bought recombinant protein immobilized on a CM5 chip; also called GPA33 antigen; tumor antigen GPA33
T2 sequence: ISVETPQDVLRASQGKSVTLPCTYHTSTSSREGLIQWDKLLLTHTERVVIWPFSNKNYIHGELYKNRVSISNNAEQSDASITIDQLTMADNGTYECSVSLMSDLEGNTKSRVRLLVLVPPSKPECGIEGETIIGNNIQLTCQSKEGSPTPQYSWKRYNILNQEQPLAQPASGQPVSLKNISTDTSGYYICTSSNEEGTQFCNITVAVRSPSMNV

B1: TC160 (bispecific antibody)
chain: DIQMTQSQSSLSTSVGDRVTITCKASQNVRTVVAWYQQKPGKSPKTLIYLASNRHTGVPSRFSGSGSGTEFTLTISNVQPEDFADYFCLQHWSYPLTFGSGTKLEIKRGGGGSGGGGSGGGGSGGGGSGGGGSGGGGSEVQLVESGGGLVKPGGSLRLSCAASGFAFSTYDMSWVRQAPGKRLEWVATISSGGSYTYYLDSVKGRFTISRDNAKNSLYLQMNSLRAEDTAVYYCAPTTVVPFAYWGQGTLVTVSSGGGGSGGGGSGGGGSGGGGSHVQLVESGGGLVQPGGSLRLSCAASGFSLTDYGVHWVRQAPGKGLEWLGVIWSGGGTAYNTALISRFTISRDNSKNTLYLQMNSLRAEDTAVYYCARRGSYPYNYFDAWGCGTLVTVSSGGGGSGGGGSGGGGSGGGGSGGGGSGGGGSQAVVTQEPSLTVSPGGTVTLTCGSSTGAVTASNYANWVQQKPGQCPRGLIGGHNNRPPGVPARFSGSLLGGKAALTLLGAQPEDEAEYYCALWYSDHWVIGGGTKLTVLGTPLGDTTHTSGKPLDGEYFTLQIRGRERFEMFRELNEALELKDAQAGKEPGGSGGAPHHHHHH
notes: Previously described GPA33xDOTA SADA clone, with the other VH/VL orientation than TC159; Carries the p53 SADA (tetramerization) domain
B2: TC234 (bispecific antibody)
chain: EVQLVESGGGLVDPGGSLRLSCAASGFAFSTYDMSWVRQAPGKGLEWVSTISSGGSYTYYADSVKGRFTISRDNAKNSLYLQMNSLRAEDTAVYYCAPTTVVPFAYWGQGTLVTVSAGGGGSGGGGSGGGGSGGGGSGGGGSGGGGSDIQMTQSPSSLSASVGDRVTITCKASQNVRTVVAWYQQKPGKAPKTLIYLASNRHTGVPSRFSGSGSGTEFTLTISNLQPEDFATYYCLQHWSYPLTFGSGTKLEVKRGGGGSGGGGSGGGGSGGGGSHVQLVESGGGLVQPGGSLRLSCAASGFSLTDYGVHWVRQAPGKGLEWLGVIWSGGGTAYNTALISRFTISRDNSKNTLYLQMNSLRAEDTAVYYCARRGSYPYNYFDAWGCGTLVTVSSGGGGSGGGGSGGGGSGGGGSGGGGSGGGGSQAVVTQEPSLTVSPGGTVTLTCGSSTGAVTASNYANWVQQKPGQCPRGLIGGHNNRPPGVPARFSGSLLGGKAALTLLGAQPEDEAEYYCALWYSDHWVIGGGTKLTVLGTPLGDTTHTSGKPLDGEYFTLQIRGRERFEMFRELNEALELKDAQAGKEPGGSGGAPHHHHHH
notes: pI variant of TC170 with a single mutation; Carries the p53 SADA (tetramerization) domain; also called GPA33xDOTA SADA; pI variant of TC170
B3: BC155 (bispecific antibody, human IgG1, kappa, N297A)
heavy: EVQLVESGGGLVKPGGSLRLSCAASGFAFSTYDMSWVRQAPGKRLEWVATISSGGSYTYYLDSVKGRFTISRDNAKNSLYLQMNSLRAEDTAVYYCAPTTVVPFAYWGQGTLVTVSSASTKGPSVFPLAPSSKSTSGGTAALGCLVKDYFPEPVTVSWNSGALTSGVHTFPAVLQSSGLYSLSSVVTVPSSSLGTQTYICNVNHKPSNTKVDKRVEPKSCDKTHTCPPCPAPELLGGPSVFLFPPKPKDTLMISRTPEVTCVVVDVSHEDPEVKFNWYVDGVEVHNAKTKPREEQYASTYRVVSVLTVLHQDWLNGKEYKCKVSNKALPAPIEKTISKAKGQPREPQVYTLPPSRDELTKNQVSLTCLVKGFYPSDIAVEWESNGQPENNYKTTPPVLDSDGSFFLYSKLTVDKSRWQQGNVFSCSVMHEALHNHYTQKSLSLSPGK
light: DIQMTQSQSSLSTSVGDRVTITCKASQNVRTVVAWYQQKPGKSPKTLIYLASNRHTGVPSRFSGSGSGTEFTLTISNVQPEDFADYFCLQHWSYPLTFGSGTKLEIKRTVAAPSVFIFPPSDEQLKSGTASVVCLLNNFYPREAKVQWKVDNALQSGNSQESVTEQDSKDSTYSLSSTLTLSKADYEKHKVYACEVTHQGLSSPVTKSFNRGECTSGGGGSGGGGSGGGGSHVQLVESGGGLVQPGGSLRLSCAASGFSLTDYGVHWVRQAPGKGLEWLGVIWSGGGTAYNTALISRFTISRDNSKNTLYLQMNSLRAEDTAVYYCARRGSYPYNYFDAWGCGTLVTVSSGGGGSGGGGSGGGGSGGGGSGGGGSGGGGSQAVVTQEPSLTVSPGGTVTLTCGSSTGAVTASNYANWVQQKPGQCPRGLIGGHNNRPPGVPARFSGSLLGGKAALTLLGAQPEDEAEYYCALWYSDHWVIGGGTKLTVLG
notes: Previously described GPA33xDOTA IgG-[L]-scFv clone; The light chain entry carries the anti-DOTA scFv at its C-terminus
B4: BC105 (bispecific antibody, human IgG1, kappa, N297A)
heavy: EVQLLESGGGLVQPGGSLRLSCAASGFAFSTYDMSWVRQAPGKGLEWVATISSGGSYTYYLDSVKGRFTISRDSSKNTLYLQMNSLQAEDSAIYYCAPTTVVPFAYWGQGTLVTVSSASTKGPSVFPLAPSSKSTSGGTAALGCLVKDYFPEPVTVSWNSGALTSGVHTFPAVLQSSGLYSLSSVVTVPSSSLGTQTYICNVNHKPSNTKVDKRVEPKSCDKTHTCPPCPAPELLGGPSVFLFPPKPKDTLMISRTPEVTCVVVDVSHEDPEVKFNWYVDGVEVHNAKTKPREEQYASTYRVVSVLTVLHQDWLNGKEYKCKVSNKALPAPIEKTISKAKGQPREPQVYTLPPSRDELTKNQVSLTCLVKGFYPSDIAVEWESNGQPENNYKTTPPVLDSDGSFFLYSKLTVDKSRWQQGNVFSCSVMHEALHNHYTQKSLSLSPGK
light: DIQMTQSPSSLSVSVGDRVTITCKASQNVRTVVAWYQQKPGLAPKTLIYLASNRHTGVPSRFSGSGSGTDFTFTISSLQPEDIATYFCQQHWSYPLTFGQGTKVEVKRTVAAPSVFIFPPSDEQLKSGTASVVCLLNNFYPREAKVQWKVDNALQSGNSQESVTEQDSKDSTYSLSSTLTLSKADYEKHKVYACEVTHQGLSSPVTKSFNRGECGGGGSGGGGSASHVKLQESGPGLVQPSQSLSLTCTVSGFSLTDYGVHWVRQSPGKGLEWLGVIWSGGGTAYNTALISRLNIYRDNSKNQVFLEMNSLQAEDTAMYYCARRGSYPYNYFDAWGCGTTVTVSSGGGGSGGGGSGGGGSQAVVIQESALTTPPGETVTLTCGSSTGAVTASNYANWVQEKPDHCFTGLIGGHNNRPPGVPARFSGSLIGDKAALTIAGTQTEDEAIYFCALWYSDHWVIGGGTRLTVLG
notes: Previously described GPA33xDOTA IgG-[L]-scFv clone; The light chain entry carries the anti-DOTA scFv at its C-terminus; also called GPA33 BsAb-IgG (BC105); GPA33 clone BC105 BsAb

Tests used:
[1] = target: T1, Human GPA33 on GPA33+ colorectal cancer …; assay: flow cytometry, LS 174T cells
[2] = target: T1, Human GPA33 on GPA33+ colorectal cancer …; assay: flow cytometry, SW 1222 cells
[3] = target: T1, Human GPA33 on GPA33+ colorectal cancer …; assay: flow cytometry, Colo 205 cells; Colo 205 cells
[4] = target: T1, Human GPA33 on GPA33+ colorectal cancer …; assay: FACS binding to LS174T cells (GPA33+)
[5] = target: T1, Human GPA33 on GPA33+ colorectal cancer …; assay: FACS binding to SW1222 cells (GPA33+)
[6] = target: T1, Human GPA33 on GPA33+ colorectal cancer …; assay: FACS binding to Colo205 cells (GPA33+)
[7] = target: T2, Human GPA33 (recombinant protein, …); assay: SPR (Biacore), human GPA33 immobilized on CM5 chip, two-state fit
Method: (§1) SPR analysis. Human GPA33 (Novoprotein, Summit, NJ) was immobilized on CM5 chips. Five concentrations of 2-fold serially diluted huA33 IgG1 or huA33-BsAbs (starting at 20 nM) were flowed over the chip using a Biacore™ T100 system (GE Healthcare, Chicago, IL). Binding kinetics of huA33 were measured at 25° C. and binding kinetics of huA33-BsAbs were measured at both 25° C. and 37° C. The sensorgrams were fitted with two state binding model for both to derive kinetic parameters.

[8] = target: T2, Human GPA33 (recombinant protein, …); assay: SPR (Biacore), human GPA33 immobilized on CM5 chip, two-state fit, ka1
Method: as §1

[9] = target: T2, Human GPA33 (recombinant protein, …); assay: SPR (Biacore), human GPA33 immobilized on CM5 chip, two-state fit, kd1
Procedure, shortened: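 The off-rate (kd1) was measured by surface plasmon resonance on a Biacore T100, with recombinant human GPA33 (Novoprotein) immobilised on a CM5 chip. Antibodies were flowed over at five concentrations, 2-fold serial dilutions starting at 20 nM. The parent IgG1 was run at 25° C and bispecific formats at 25° C and 37° C. Sensorgrams were fitted with a two-state binding model to derive the kinetic parameters.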

[10] = target: T2, Human GPA33 (recombinant protein, …); assay: SPR (Biacore), human GPA33 immobilised on the chip; KD relative to that of TC170
Procedure, shortened: (§2)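 Surface plasmon resonance on a Biacore system with immobilised recombinant human GPA33 (Novoprotein) was used to determine KD by kinetic fitting. The values given are each KD divided by the KD of a reference molecule.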

[11] = target: T1, Human GPA33 on GPA33+ colorectal cancer …; assay: FACS titration on Colo205 cells, geometric mean MFI
[12] = target: T1, Human GPA33 on GPA33+ colorectal cancer …; assay: FACS titration on LS174T cells, geometric mean MFI [Cont.]
[13] = target: T1, Human GPA33 on GPA33+ colorectal cancer …; assay: FACS titration on SW1222 cells, geometric mean MFI [Cont.]
[14] = target: T2, Human GPA33 (recombinant protein, …); assay: SPR (Biacore), human GPA33 immobilised on the chip; KD relative to that of BC015
Procedure, shortened: as §2

Row | Binder | IC50 [1] [nM] | IC50 [2] [nM] | EC50 [3] [nM] | fold change of binding EC50 (relative to TC170, lower is better) [4] | fold change of binding EC50 (relative to TC170, lower is better) [5] | fold change of binding EC50 (relative to TC170, lower is better) [6] | Kd [7] [nM] | ka2 [7] [s⁻¹] | kd2 [7] [s⁻¹] | kon [8] [M⁻¹ s⁻¹] | koff [9] [s⁻¹] | Fold change of KD (relative to TC170, lower is better) [10] | EC50 [4] [nM] | EC50 [5] [nM] | EC50 [6] [nM] | EC50 [11] [nM] | EC50 [12] [nM] | EC50 [13] [nM] | Fold change of KD (relative to BC015, lower is better) [14]
1 | B1 | 0.56 | 0.36 | 1.2 | 1.81 | 0.22 | 1.62 | 0.0518 | 0.00678 | 0.000654 | 3.43e+06 | 0.00202 | 3.4 |  |  |  |  |  |  | 
2 | B2 |  |  |  | 0.68 | 1.24 | 0.96 | 0.0122 | 0.00566 | 0.000353 | 4.65e+06 | 0.000966 | 0.8 | 0.21 | 2.05 | 0.71 | 0.71 | 0.21 | 2.05 | 
3 | B3 |  |  |  |  |  |  | 0.171 | 0.00328 | 0.00164 | 4.13e+06 | 0.00212 |  |  |  |  |  |  |  | 1.45
4 | B4 |  |  |  |  |  |  | 1.21 | 0.00238 | 0.000697 | 4.43e+06 | 0.0236 |  |  |  |  |  |  |  | 10.2
